Earlier results on one substance are cited in PMC3977038.

The target of the series is FcεRIα (Homo sapiens) (UniProt P12319).
Chain of FcεRIα (Homo sapiens) (P12319 26-257): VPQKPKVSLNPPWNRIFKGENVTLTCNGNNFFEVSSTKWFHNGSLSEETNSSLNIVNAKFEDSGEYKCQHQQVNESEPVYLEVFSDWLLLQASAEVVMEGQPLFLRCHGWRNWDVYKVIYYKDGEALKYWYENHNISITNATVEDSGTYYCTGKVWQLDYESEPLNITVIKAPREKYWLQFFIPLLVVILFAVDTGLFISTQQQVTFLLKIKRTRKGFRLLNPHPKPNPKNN

Chain of IgE-Fc Fc (P01854 105-426): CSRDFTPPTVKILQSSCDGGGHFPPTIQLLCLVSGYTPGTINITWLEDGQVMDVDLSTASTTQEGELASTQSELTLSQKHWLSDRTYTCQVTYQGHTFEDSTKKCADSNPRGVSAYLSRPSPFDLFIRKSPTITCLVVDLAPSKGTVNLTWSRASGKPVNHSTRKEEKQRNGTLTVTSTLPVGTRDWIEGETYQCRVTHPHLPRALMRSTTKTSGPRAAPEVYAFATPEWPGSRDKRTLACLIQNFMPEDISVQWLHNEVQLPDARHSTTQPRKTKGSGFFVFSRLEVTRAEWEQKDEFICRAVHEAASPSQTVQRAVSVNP

Turning to IgE-Fc Fc (from UniProt P01854), the Kd is 0.1 nM.
